Reference: patent US7029676B2

Assays:
[1] = molecular target: integrin β1 subunit (human) (UniProt P05556)
Human E-cadherin (human) [2] = molecular target: Human E-cadherin (human)
Human E-cadherin (human) [3] = molecular target: Human E-cadherin (human); remark: listed apart in the source
Human E-cadherin (human) [4] = molecular target: Human E-cadherin (human); remark: listed apart in the source
Human E-cadherin (human) [5] = molecular target: Human E-cadherin (human); remark: listed apart in the source

**Q.** How did the inhibition of IEL adhesion to the 16E6.A5 epithelial cell monolayer [1] turn out when 4B4 (antibody) was run?
**A.** Its inhibition of IEL adhesion to the 16E6.A5 epithelial cell monolayer is 21%.

**Q.** For “α^4β7 integrin (from UniProt P13612) (receptor)”, which adhesion of COS-7 transfectants to L-M E-cadherin transfectants (percent bound) (Human E-cadherin (human) [2]) is on record?
**A.** The adhesion of COS-7 transfectants to L-M E-cadherin transfectants (percent bound) was 16%.

**Q.** And the adhesion of COS-7 transfectants to 16E6.A5 monolayers (percent bound) (Human E-cadherin (human) [3])?
**A.** The adhesion of COS-7 transfectants to 16E6.A5 monolayers (percent bound) was 9%.

**Q.** “α^Eβ7 integrin (from UniProt P38570) (receptor)” was tested. Which adhesion of α^Eβ7 COS-7 transfectants to L-M monolayers (Human E-cadherin (human) [4]) did it give?
**A.** Its adhesion of α^Eβ7 COS-7 transfectants to L-M monolayers is 79%.

**Q.** And the adhesion of COS-7 transfectants to L-M E-cadherin transfectants (Human E-cadherin (human) [2])?
**A.** The adhesion of COS-7 transfectants to L-M E-cadherin transfectants was 81%.

**Q.** What about the adhesion of COS-7 transfectants to 16E6.A5 monolayers (Human E-cadherin (human) [3]) of the same substance?
**A.** The adhesion of COS-7 transfectants to 16E6.A5 monolayers was 267%.

**Q.** And the adhesion of IEL to L-M monolayers (percent of IEL bound) (Human E-cadherin (human) [5])?
**A.** The adhesion of IEL to L-M monolayers (percent of IEL bound) was 89%.
